From IntAct's records for PubMed 8940095

Biological target: pdli5_rat Pdlim5 (UniProt Q62920)
Sequence (Q62920 whole entry): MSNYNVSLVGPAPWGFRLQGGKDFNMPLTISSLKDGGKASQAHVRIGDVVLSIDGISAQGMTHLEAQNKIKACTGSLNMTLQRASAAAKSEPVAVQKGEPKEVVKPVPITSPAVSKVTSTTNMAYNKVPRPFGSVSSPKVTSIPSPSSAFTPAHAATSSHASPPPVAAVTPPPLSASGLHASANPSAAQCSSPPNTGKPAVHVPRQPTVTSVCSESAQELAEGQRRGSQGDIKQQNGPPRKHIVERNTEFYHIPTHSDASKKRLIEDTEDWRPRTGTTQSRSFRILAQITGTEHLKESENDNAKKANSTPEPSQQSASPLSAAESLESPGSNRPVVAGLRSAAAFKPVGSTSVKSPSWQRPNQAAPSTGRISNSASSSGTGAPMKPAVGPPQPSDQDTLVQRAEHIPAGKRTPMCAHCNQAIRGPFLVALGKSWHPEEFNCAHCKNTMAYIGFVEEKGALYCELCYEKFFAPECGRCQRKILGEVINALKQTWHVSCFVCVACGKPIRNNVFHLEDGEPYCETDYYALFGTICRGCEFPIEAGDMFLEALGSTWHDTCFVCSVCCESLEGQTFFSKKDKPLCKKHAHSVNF

Chain of Protein kinase C beta type (Rattus norvegicus (Rat)), P68403-1 K371M (P68403 whole entry K371M): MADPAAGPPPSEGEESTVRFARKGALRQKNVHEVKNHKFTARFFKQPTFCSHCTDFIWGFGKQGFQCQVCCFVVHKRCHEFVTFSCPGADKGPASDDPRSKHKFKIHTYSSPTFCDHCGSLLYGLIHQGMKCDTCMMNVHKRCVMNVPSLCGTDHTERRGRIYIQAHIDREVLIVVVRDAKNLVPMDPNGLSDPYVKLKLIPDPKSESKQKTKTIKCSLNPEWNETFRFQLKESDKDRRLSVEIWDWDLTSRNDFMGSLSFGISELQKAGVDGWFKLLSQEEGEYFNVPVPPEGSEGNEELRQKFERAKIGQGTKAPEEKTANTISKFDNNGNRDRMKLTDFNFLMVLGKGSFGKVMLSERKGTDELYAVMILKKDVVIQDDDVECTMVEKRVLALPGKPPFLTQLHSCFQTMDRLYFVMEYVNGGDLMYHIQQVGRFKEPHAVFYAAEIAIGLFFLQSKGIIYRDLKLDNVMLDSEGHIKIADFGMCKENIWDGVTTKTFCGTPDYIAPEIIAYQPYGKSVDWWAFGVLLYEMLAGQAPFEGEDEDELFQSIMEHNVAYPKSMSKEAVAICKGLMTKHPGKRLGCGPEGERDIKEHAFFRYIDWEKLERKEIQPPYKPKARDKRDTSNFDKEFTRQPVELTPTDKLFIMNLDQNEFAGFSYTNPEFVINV

**Q.** For “Protein kinase C beta type (Rattus norvegicus (Rat)), P68403-1 K371M”, which “effect of a mutation on the interaction” value is on record?
**A.** Its value is “with no effect”.
